{"source": "IntAct's records for PubMed 9502724", "parents": {"B1": {"name": "Protein mothers against dpp (Drosophila melanogaster (Fruit fly)), P42003 (parent)", "chain": "MDTDDVESNTSSAMSTLGSLFSFTSPAVKKLLGWKQGDEEEKWAEKAVDSLVKKLKKRKGAIEELERALSCPGQPSKCVTIPRSLDGRLQVSHRKGLPHVIYCRVWRWPDLQSHHELKPLELCQYPFSAKQKEVCINPYHYKRVESPVLPPVLVPRHSEFAPGHSMLQFNHVAEPSMPHNVSYSNSGFNSHSLSTSNTSVGSPSSVNSNPNSPYDSLAGTPPPAYSPSEDGNSNNPNDGGQLLDAQMGDVAQVSYSEPAFWASIAYYELNCRVGEVFHCNNNSVIVDGFTNPSNNSDRCCLGQLSNVNRNSTIENTRRHIGKGVHLYYVTGEVYAECLSDSAIFVQSRNCNYHHGFHPSTVCKIPPGCSLKIFNNQEFAQLLSQSVNNGFEAVYELTKMCTIRMSFVKGWGAEYHRQDVTSTPCWIEIHLHGPLQWLDKVLTQMGSPHNAISSVS"}, "B2": {"name": "Mothers against decapentaplegic homolog (Drosophila melanogaster (Fruit fly)), O62609 (parent)", "chain": "MGGGSGACPPAHMYGAVAPQDIIVRDMVQMPPPPSNAPTSADACLSIVHSLMCHRQGGESEGFAKRAIESLVKKLKEKRDELDSLITAITTNGAHPSKCVTIQRTLDGRLQVAGRKGFPHVIYARIWRWPDLHKNELKHVKYCAFAFDLKCDSVCVNPYHYERVVSPGIDLSGLSLQSGPSRLVKDEYSAGPLVGSMDIDGNDIGTIQHHPTQMVGPGGYGYPQGPSEYVGDANPMSAMFPTGRTIPKIEPQDGVAGSRGSWMVPPPPRLGQPPQQQQQQPQQQTPQPTQQQQAQSQAAAHSLPVPHGMPGMPGPMNPGPVMAPPPPPQQAQNPQGNGVHHTQANSPTDPASALAMQQQQQQQQQQQQQQQQQQQQSGGVPNGSVNAGGGAAAGGQYYGQPPPVSQMQGAGGGGTSVAPSVHAQQNGYVSQPGSAGSAPVGGGGVFGTAQPTPQQPQQPPTGVQANTGSAGAQAGAGGGAAGTWTGPNTLTYTQSMQPPDPRSLPGGFWNSSLSGDLGSPQQTPPQQQQQQQQPRLLSRQPPPEYWCSIAYFELDTQVGETFKVPSAKPNVIIDGYVDPSGGNRFCLGALSNVHRTEQSERARLHIGKGVQLDLRGEGDVWLRCLSDNSVFVQSYYLDREAGRTPGDAVHKIYPAACIKVFDLRQCHQQMHSLATNAQAAAAAQAAAVAGVANQQMGGGGRSMTAAAGIGVDDLRRLCILRLSFVKGWGPDYPRQSIKETPCWIEVHLHRALQLLDEVLHAMPIDGPRAAA"}}}
{"variants_of": "B1", "settings": "with Med, O62609"}
{"variant": "S452A;S453A;S455A", "effect of a mutation on the interaction": "disrupting interaction strength"}
{"variants_of": "B2", "settings": "with mad_drome Mad, P42003"}
{"variant": "G727D", "effect of a mutation on the interaction": "disrupting interaction strength"}
{"variant": "C99S", "effect of a mutation on the interaction": "with no effect"}
